Data set [1] concerns the target T1, pro-caspase-3 ([35S]-labeled).
T1 sequence (P42574 1-277, species assumed, looked up): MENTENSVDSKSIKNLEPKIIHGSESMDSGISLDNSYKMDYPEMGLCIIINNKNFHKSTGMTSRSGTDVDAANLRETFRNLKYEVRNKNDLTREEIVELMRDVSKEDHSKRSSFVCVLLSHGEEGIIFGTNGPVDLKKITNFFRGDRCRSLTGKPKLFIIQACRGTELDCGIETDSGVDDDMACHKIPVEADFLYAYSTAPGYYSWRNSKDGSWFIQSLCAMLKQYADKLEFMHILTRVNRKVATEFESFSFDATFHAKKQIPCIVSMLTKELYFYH

The target in data set [2] is poly(ADP-ribose) polymerase.
For data set [3], the target named is T2, caspase-12Δ (Gly95-Asn419 of caspase-12L, with an artificial initiation codon), [35S]-labeled.
T2 chain: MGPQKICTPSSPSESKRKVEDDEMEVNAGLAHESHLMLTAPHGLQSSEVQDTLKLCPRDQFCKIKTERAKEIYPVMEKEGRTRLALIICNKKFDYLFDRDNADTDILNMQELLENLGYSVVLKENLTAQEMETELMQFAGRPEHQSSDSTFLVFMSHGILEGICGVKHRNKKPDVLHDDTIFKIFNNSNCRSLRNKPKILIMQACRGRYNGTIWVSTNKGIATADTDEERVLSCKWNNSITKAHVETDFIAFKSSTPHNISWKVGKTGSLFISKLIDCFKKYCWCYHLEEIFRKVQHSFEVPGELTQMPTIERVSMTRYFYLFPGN

Data set [4] deals with T3, pro-caspase-12 (caspase-12L, full-length precursor, 419 residues, 48 kDa).
T3 chain: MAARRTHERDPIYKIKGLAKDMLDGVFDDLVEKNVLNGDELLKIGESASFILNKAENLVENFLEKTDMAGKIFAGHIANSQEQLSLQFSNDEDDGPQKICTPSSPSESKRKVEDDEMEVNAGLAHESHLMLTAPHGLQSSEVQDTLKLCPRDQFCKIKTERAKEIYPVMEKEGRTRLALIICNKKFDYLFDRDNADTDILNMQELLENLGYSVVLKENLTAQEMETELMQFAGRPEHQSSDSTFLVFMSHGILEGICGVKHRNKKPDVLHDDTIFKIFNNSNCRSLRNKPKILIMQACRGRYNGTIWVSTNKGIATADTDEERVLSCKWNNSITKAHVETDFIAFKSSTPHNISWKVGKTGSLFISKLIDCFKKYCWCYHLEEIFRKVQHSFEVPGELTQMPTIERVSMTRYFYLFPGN

Data set [5] concerns the target T4, pro-caspase-2 ([35S]-labeled).
T4 sequence (P42575 2-452, species assumed, looked up): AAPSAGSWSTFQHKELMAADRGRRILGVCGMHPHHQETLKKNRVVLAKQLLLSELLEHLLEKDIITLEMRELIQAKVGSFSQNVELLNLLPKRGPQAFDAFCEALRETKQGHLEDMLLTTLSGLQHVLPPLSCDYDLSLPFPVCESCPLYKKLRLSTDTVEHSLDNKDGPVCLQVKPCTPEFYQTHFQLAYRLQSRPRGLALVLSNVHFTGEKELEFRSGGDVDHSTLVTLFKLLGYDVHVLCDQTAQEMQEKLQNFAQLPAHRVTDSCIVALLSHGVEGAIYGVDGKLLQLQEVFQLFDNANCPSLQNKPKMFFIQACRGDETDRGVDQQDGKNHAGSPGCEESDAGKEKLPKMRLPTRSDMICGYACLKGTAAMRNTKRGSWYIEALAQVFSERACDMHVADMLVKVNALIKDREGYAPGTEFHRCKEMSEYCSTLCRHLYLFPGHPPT

For data set [6], the system named is rat embryonic fibroblast cells. Briefly: Cell death induced by transient overexpression of lacZ fusion constructs, X-gal staining. It counts as cell-based. The settings on record: primary rat embryonic fibroblasts, FIG. 4C. From the text:
(§1) FIGS. 4A-4C. Cell death induced by overexpression of caspase-12. […] The round cells expressing the casp-12L-lacZ fusion proteins show condensed and fragmented nuclei. […] The data shown are the percentage of round blue cells among total number of blue cells counted. In each transfection, over 200 blue cells were randomly chosen and counted. The data of Rat-1 cells collected from at least three independent experiments. The constructs used were: casp-12L-lacZ, casp-12S-lacZ, casp-12Δ-lacZ, ICE-lacZ, lacZ. Rat embryonic fibroblast cells (REF) were also transfected with either casp-12L-lacZ or lacZ.
Rat-1, rat embryonic fibroblast cells, NG108-15, HeLa and COS-1 were maintained in culture at 37° C. with 5% CO2 in Dulbecco's modified Eagle's medium containing 10% (v/v) fetal bovine serum (BioWhittaker) and 50 units/ml penicillin and 50 μg/ml streptomycin (Sigma). The day before transfection, cells were seeded at a density of 1.3×10^4 cells/cm^2. […] The expression of chimeric genes in cells was detected by staining of cells with 5-bromo-4-chloro-3-indolyl β-D-galactoside (X-gal) as previously described (Miura, M., et al., Cell 75:653-660 (1993); Kumar, S., et al., Genes and Development 8:1613-1626 (1994); Wang, L., et al., Cell 78:739-750 (1994)). […]

Another data set has as its system NG108-15. As to the kind of experiment: Cell type specificity of cell killing, lacZ fusion transfection. It counts as cell-based. The note with it: NG108-15, FIG. 6. Here is the method:
(§2) FIG. 6. The cell type specificity of caspase-12-induced cell killing activity. NG108-15, HeLa and COS-1 cells were transfected with casp-12L-lacZ, casp-12S-LacZ, lacZ or ICE-lacZ. Staining of transfectants were done and the data are presented as in FIG. 4C.
(§3) Rat-1, rat embryonic fibroblast cells, NG108-15, HeLa and COS-1 were maintained in culture at 37° C. with 5% CO2 in Dulbecco's modified Eagle's medium containing 10% (v/v) fetal bovine serum (BioWhittaker) and 50 units/ml penicillin and 50 μg/ml streptomycin (Sigma). The day before transfection, cells were seeded at a density of 1.3×10^4 cells/cm^2. Expression constructs were transferred to cells with either calcium phosphate or lipofectamine (GIBCO BRL) as previously described (Miura, M., et al., Cell 75:653-660 (1993); Kumar, S., et al., Genes and Development 8:1613-1626 (1994); Wang, L., et al., Cell 78:739-750 (1994)). The expression of chimeric genes in cells was detected by staining of cells with 5-bromo-4-chloro-3-indolyl β-D-galactoside (X-gal) as previously described (Miura, M., et al., Cell 75:653-660 (1993); Kumar, S., et al., Genes and Development 8:1613-1626 (1994); Wang, L., et al., Cell 78:739-750 (1994)). […]

Another data set concerns HeLa. Described as above. It counts as cell-based. The settings on record: FIG. 6. Here is the method:
as §2, §3

Data set [7] can be described thus: Protease activity of full-length recombinant caspase-12 from E. coli. It counts as biochemical. The settings on record: expressed and purified from E. coli.
A further data set deals with Rat-1/bcl-2. As to the kind of experiment: Effect of cell death suppressor bcl-2 on caspase-12 killing activity. It counts as cell-based. The note with it: casp-12L-lacZ in Rat-1/bcl-2 stable transfectant. Here is the method: FIGS. 5A-5B. Effect of cell death suppressors on the killing activity of caspase-12. […] Cell death was assayed as described in FIG. 4C. […] The data from transfection of the parental cell line, Rat-1 (FIG. 4C), are included in the figures for comparison. The lacZ construct was also used for transfection as a control.
To determine if expression of bcl-2 and crmA can inhibit apoptosis induced by casp-12 overexpression, casp-12L-lacZ fusion construct was transfected into stable cell lines of Rat-1 that overexpresses either bcl-2 or crmA (Miura, M., et al., Cell 75:653-660 (1993)). Cell death was assayed as described above (Example 3). […] The magnitude of the bcl-2 suppression against toxicity of casp-12 overexpression was about 10% (60% for Rat-1, 50% for Rat-1/bcl-2) which is much smaller than that observed for ICE and casp-2 (FIG. 5A; Wang, L., et al., Cell 78:739-750 (1994)).

The next data set deals with Rat-1 cells. Briefly: Cell death induced by transient overexpression of lacZ fusion constructs, X-gal staining. The settings on record: lacZ fusion construct, 24 hr after transfection. It counts as cell-based.
Source text: as §1
To examine if expression of caspase-12 induces apoptosis, a transient expression system was used to overexpress caspase-12 in mammalian cells. […] Transfected cells are easily detected by staining with X-gal because of the β-galactosidase activity of lacZ. Expression constructs of casp-12L and casp-12S fused with lacZ gene in pcDNA3 vector, which contains the cytomegalovirus (CMV) promoter, were generated. These expression constructs were introduced into Rat-1 cells by transfection, and the expression of the genes were examined 24 hr after transfection using X-gal reaction.
Rat-1, rat embryonic fibroblast cells, NG108-15, HeLa and COS-1 were maintained in culture at 37° C. with 5% CO2 in Dulbecco's modified Eagle's medium containing 10% (v/v) fetal bovine serum (BioWhittaker) and 50 units/ml penicillin and 50 μg/ml streptomycin (Sigma). The day before transfection, cells were seeded at a density of 1.3×10^4 cells/cm^2. Expression constructs were transferred to cells with either calcium phosphate or lipofectamine (GIBCO BRL) as previously described (Miura, M., et al., Cell 75:653-660 (1993); Kumar, S., et al., Genes and Development 8:1613-1626 (1994); Wang, L., et al., Cell 78:739-750 (1994)). The expression of chimeric genes in cells was detected by staining of cells with 5-bromo-4-chloro-3-indolyl β-D-galactoside (X-gal) as previously described (Miura, M., et al., Cell 75:653-660 (1993); Kumar, S., et al., Genes and Development 8:1613-1626 (1994); Wang, L., et al., Cell 78:739-750 (1994)). Immunostaining of transfected cells was done as previously described using mouse monoclonal anti-lacZ antibody (Miura, M., et al., Cell 75:653-660 (1993); Kumar, S., et al., Genes and Development 8:1613-1626 (1994); Wang, L., et al., Cell 78:739-750 (1994)).

Another data set has as its system COS-1 cells. Briefly: Cell type specificity of cell killing, lacZ fusion transfection. The settings on record: COS-1, FIG. 6. It counts as cell-based, monkey. Here is the method: as §2, §3
For the next data set, the target named is T5, caspase-12 (Mus musculus, UniProt O08736).
T5 sequence (O08736 1-419): T3 chain
As to the kind of experiment: Suppression of cell-killing activity of caspase-12 by baculovirus p35. The note with it: unpublished data. It counts as cell-based.

Chain of pro-IL-1β (P01584 whole entry): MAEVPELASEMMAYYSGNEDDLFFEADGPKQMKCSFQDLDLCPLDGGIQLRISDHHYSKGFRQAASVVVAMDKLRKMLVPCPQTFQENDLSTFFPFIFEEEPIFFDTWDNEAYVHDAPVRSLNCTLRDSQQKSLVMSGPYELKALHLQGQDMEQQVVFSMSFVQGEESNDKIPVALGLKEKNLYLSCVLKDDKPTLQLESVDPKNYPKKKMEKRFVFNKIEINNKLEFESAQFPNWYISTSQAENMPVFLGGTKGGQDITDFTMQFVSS
Chain of pro-ICE ([35S]-labeled) (P29466 whole entry): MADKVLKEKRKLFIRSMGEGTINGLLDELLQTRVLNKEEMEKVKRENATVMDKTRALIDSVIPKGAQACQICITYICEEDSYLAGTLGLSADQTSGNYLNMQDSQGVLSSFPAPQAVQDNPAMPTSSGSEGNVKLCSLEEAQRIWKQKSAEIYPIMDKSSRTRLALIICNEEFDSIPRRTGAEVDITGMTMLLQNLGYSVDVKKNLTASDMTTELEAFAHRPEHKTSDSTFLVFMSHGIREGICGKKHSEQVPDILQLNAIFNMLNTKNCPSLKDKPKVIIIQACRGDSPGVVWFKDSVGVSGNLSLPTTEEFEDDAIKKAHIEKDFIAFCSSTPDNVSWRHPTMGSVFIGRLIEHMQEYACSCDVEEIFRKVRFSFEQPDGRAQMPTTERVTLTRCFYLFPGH

B1: His-tagged caspase-12Δ2 (residues 145-419 of caspase-12L), partially purified from E. coli, autoprocessed into p24 and p10 (protein)
chain 1: TLKLCPRDQFCKIKTERAKEIYPVMEKEGRTRLALIICNKKFDYLFDRDNADTDILNMQELLENLGYSVVLKENLTAQEMETELMQFAGRPEHQSSDSTFLVFMSHGILEGICGVKHRNKKPDVLHDDTIFKIFNNSNCRSLRNKPKILIMQACRGRYNGTIWVSTNKGIATAD
chain 2: TDEERVLSCKWNNSITKAHVETDFIAFKSSTPHNISWKVGKTGSLFISKLIDCFKKYCWCYHLEEIFRKVQHSFEVPGELTQMPTIERVSMTRYFYLFPGN
As to B1, the “in vitro cleavage of [35S]-labeled pro-enzyme by the partially purified protease” value is recorded as “only faint bands of cleavage products were visible” in [1], “only faint bands of cleavage products were visible” with pro-ICE ([35S]-labeled), “can efficiently process pro-caspase-12 (48 kDa) into fragments” in data set [4] and “only faint bands of cleavage products were visible” in data set [5]. The “in vitro cleavage by the purified protease” value in [2] is “showed little activity for cleavage of pro-IL-1β and poly(ADP-ribose) polymerase”; with pro-IL-1β, “showed little activity for cleavage of pro-IL-1β and poly(ADP-ribose) polymerase”. For the same molecule, in data set [3], the “in vitro cleavage of [35S]-labeled protein by the partially purified protease” value is “the 38 kDa polypeptide was cleaved into 26 kDa and 13 kDa fragments”.

B2: caspase-12L: long form of mouse caspase-12, 419 amino acid residues (SEQ ID NO:2); expressed as lacZ fusion (protein)
chain: T3 chain
modifications: lacZ fusion
For the molecule B2, in data set [6], the “transfected cells round and small” value was “about 60%”. For the same molecule, the “apoptosis induced by casp-12L expression” value with NG108-15, with HeLa and with COS-1 cells was “resistant to apoptosis” throughout. Moreover, in data set [7], the “processing and protease activity in vitro” value was “without any processing and protease activity”. In addition, the “percentage of cell death” value in the data set on Rat-1/bcl-2 was found to be 50%. Also, the “percentage of cell death (round blue cells among total blue cells)” value in the data set on Rat-1 cells is “about 60%”; with Rat-1 cells (listed as casp-12L-lacZ), 60%.

B3: baculovirus p35: virus inhibitor for the caspase family (protein, UniProt P08160 1-299, looked up)
Early 35 kDa protein: MCVIFPVEIDVSQTIIRDCQVDKQTRELVYINKIMNTQLTKPVLMMFNISGPIRSVTRKNNNLRDRIKSKVDEQFDQLERDYSDQMDGFHDSIKYFKDEHYSVSCQNGSVLKSKFAKILKSHDYTDKKSIEAYEKYCLPKLVDERNDYYVAVCVLKPGFENGSNQVLSFEYNPIGNKVIVPFAHEINDTGLYEYDVVAYVDSVQFDGEQFEEFVQSLILPSSFKNSEKVLYYNEASKNKSMIYKALEFTTESSWGKSEKYNWKIFCNGFIYDKKSKVLYVKLHNVTSALNKNVILNTIK
Consider B3, for which the “suppression of cell-killing activity of caspase-12” value in the data set with caspase-12 was “could not efficiently suppress”.
